Primed or numbered codes have the meaning given here. Where no end group is shown, it is not given here. [ ]: non-standard residue; d: D form. APC″ = 3-aminopyrrolidine-4-carboxylic acid (cyclic β-amino acid); ACPC″ = 2-aminocyclopentanecarboxylic acid (x in the sequences); APC = 3-aminopyrrolidine-4-carboxylic acid; ACPC = 2-aminocyclopentanecarboxylic acid; β3hY = N[C@H](CC(=O)O)Cc1ccc(O)cc1; β3hR = N=C(N)NCCC[C@H](N)CC(=O)O; β3hQ = NC(=O)CC[C@H](N)CC(=O)O; β3hN = NC(=O)C[C@H](N)CC(=O)O; β3hL = CC(C)C[C@H](N)CC(=O)O; β3hK = NCCCC[C@H](N)CC(=O)O; β3hV = CC(C)[C@H](N)CC(=O)O; βAla = NCCC(=O)O
T1: VPAC2 receptor (UniProt P41587 24-438, limits assumed)
T1 sequence (looked up): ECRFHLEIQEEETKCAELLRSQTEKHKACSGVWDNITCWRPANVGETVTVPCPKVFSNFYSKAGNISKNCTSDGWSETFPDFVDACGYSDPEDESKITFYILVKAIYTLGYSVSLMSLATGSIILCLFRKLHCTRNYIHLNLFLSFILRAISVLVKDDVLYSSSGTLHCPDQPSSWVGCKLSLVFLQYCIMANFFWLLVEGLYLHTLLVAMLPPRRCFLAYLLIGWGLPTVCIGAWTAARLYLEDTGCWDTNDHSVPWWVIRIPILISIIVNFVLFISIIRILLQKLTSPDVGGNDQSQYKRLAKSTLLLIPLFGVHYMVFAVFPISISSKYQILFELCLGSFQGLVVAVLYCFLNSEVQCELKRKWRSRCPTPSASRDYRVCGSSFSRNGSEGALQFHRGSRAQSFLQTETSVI

T2: VPAC1 receptor (UniProt P32241 31-457, limits assumed)
T2 sequence (looked up): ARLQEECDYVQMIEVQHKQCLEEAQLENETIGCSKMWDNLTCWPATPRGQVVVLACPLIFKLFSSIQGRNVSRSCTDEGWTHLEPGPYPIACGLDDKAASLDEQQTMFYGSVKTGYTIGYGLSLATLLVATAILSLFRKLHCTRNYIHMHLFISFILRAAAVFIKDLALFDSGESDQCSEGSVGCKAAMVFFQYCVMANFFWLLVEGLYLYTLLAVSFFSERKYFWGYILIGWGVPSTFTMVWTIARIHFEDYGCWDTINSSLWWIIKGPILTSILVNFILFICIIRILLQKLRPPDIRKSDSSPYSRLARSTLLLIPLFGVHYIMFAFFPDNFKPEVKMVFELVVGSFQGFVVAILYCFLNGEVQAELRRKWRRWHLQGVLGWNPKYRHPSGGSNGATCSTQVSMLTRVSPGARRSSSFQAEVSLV


How the values were obtained:
VPAC2 receptor = molecular target: T1, VPAC2 receptor; experiment: cell-based or functional assay
VPAC1 receptor = molecular target: T2, VPAC1 receptor; experiment: cell-based or functional assay

| EC50 vpac2 (Molar), cell-based cAMP assay (VPAC2 receptor) [nM] | EC 50 vpac1 (Molar), cell-based cAMP assay (VPAC1 receptor) [nM] | Binder |
| --- | --- | --- |
| 0.0784 | 0.195 | Ac-HSDAVFTDNYTRLRKQ[ACPC″]AAK[APC″]YL[ACPC″]SIK[β3hN]KRY (not fully specified (C-terminus); printed as Ac-HSDAVFTDNYTRLRKQxAAKzYLxSIKnKRY) [LBT-V221] |
| 0.422 | 9.51 | Ac-HSDAVFTENYTKLRKQ[ACPC″]AAK[APC″]YL[ACPC″]DLK[β3hK]GGT (not fully specified (C-terminus); printed as Ac-HSDAVFTENYTKLRKQxAAKzYLxDLKkGGT) [LBT-V220] |
| 0.963 | > 1000 | Ac-HSDAVFTENYTKLRKQLAA[APC]KY[ACPC]NDL[β3hK]KG[βAla]T (not fully specified (C-terminus); printed as Ac-HSDAVFTENYTKLRKQLAAzKYxNDLkKGgT) [LBT-V202] |

The next lines start with the binder.

| Binder | EC50 vpac2 (Molar), cell-based cAMP assay (VPAC2 receptor) [nM] | EC 50 vpac1 (Molar), cell-based cAMP assay (VPAC1 receptor) [nM] |
| --- | --- | --- |
| Ac-H[ACPC″]DA[ACPC″]FTE[ACPC″][β3hY]TKLR[β3hK]QLAA[APC″]KY[ACPC″]NDL[β3hK]KG[βAla]T (not fully specified (C-terminus); printed as Ac-HxDAxFTExyTKLRkQLAAzKYxNDLkKGgT) [LBT-V219] | > 1000 | 461 |
| Ac-H[ACPC″]DA[β3hV]FTENYTK[β3hL]RKQLAA[APC″]KY[ACPC″]NDL[β3hK]KG[βAla]T (not fully specified (C-terminus); printed as Ac-HxDAvFTENYTKlRKQLAAzKYxNDLkKGgT) [LBT-V215] | 1.33 | 1420 |
| Ac-H[ACPC″]DA[β3hV]FTENYTKL[β3hR]KQLAA[APC″]KY[ACPC″]NDL[β3hK]KG[βAla]T (not fully specified (C-terminus); printed as Ac-HxDAvFTENYTKLrKQLAAzKYxNDLkKGgT) [LBT-V214] | 1.37 | > 1000 |
| Ac-H[ACPC″]DA[ACPC″]FTE[ACPC″][β3hY]TKLRK[β3hQ]LAA[APC″]KY[ACPC″]NDL[β3hK]KG[βAla]T (not fully specified (C-terminus); printed as Ac-HxDAxFTExyTKLRKqLAAzKYxNDLkKGgT) [LBT-V218] | 1.02 | > 1000 |
| Ac-H[ACPC″]DA[ACPC″]FTE[ACPC″][β3hY]TKLRKQ[β3hL]AA[APC″]KY[ACPC″]NDL[β3hK]KG[βAla]T (not fully specified (C-terminus); printed as Ac-HxDAxFTExyTKLRKQlAAzKYxNDLkKGgT) [LBT-V217] | 1.17 | 785 |
| Ac-HSDAVFTENYTKLRKQ[ACPC]AA[APC]KYL[ACPC]DL[β3hK]KGGT (not fully specified (C-terminus); printed as Ac-HSDAVFTENYTKLRKQxAAzKYLxDLkKGGT) [LBT-V203] | 0.18 | 218 |
| Ac-H[ACPC″]DA[ACPC″]FTE[β3hN][β3hY]TKLRKQLAA[APC″]KY[ACPC″]NDL[β3hK]KG[βAla]T (not fully specified (C-terminus); printed as Ac-HxDAxFTEnyTKLRKQLAAzKYxNDLkKGgT) [LBT-V216] | 95.6 | 932 |
